Test results reported in PMC5673899, “Structural basis for receptor recognition of pollen tube attraction peptides” (Nature Communications, 2017).
Entries after “also recorded” stand apart in the source; their conditions may differ.

Experiments:
MIK2^LRR = test: ITC, AtLURE1.2 titrated into MIK2^LRR; type: binding, Arabidopsis; conditions: 25 °C, 200 mM HEPES pH 7.0, 100 mM NaCl, as for MIK1LRR (0.5 mM AtLURE1.2 into 0.05 mM)
Description: (§1) The genes of AtPRK3 ^LRR (residues 1–241), AtPRK4 ^LRR (residues 1–277), AtPRK5 ^LRR (residues 1–279), AtPRK6 ^LRR (residues 1–262), MIK1 ^LRR (residues 1–633), MIK2 ^LRR (residues 1–707) were amplified from Arabidopsis cDNA library by PCR and cloned into pFastBac-1 vector with a C-terminal 6 × His-tag. Their identities were confirmed by sequencing. The mature form of AtLURE1.1 (residues 20–94), AtLURE1.2 (residues 20–90), AtLURE1.3 (residues 21–91), and AtLURE1.4 (residues 20–90) were cloned into pFastBac-1 vector, with a modified N-terminal hemolin signal peptide and 6 × His-SUMO tag. Point mutation constructs were generated by QuickChange Site-Directed Mutagenesis Kit (Strategene). All the proteins were expressed using the Bac-to-Bac baculovirus expression system (Invitrogen) in High Five cells at 22 °C. One liter of High Five cells (2.0 × 10^6 cells mL^−1) cultured in the medium from Expression Systems was infected with 25 ml recombinant baculovirus and the media was collected after 72 h of infection. Secreted LRR proteins were purified using Ni-NTA (Novagen) and size-exclusion chromatography (Hiload 200, GE Healthcare) in buffer containing 10 mM Bis-Tris pH 6.0 and 100 mM NaCl. […]
Supplementary Figure 6: Binding affinity between MIK1LRR, MIK2LRR and AtLURE1.2 was not detected in ITC assay. […]

MIK1^LRR = test: In vitro pull-down with MIK1^LRR; type: binding, Arabidopsis; conditions: Ni-NTA, excess AtLURE1.2, on ice 30 min, washed five times; SDS-PAGE, Coomassie blue
Description: as §1
The purified His-tagged ectodomains of AtPRK proteins and MIK1, 2 were used to pull-down the AtLURE1.2 peptide. […] All the eluted samples were analyzed by SDS-PAGE and visualized by Coomassie blue staining. […]

B1: AtLURE1.2: mature form of AtLURE1.2 (residues 20–90), defensin-like cysteine-rich peptide expressed in insect cells (protein)
chain: TLINGSSDEERTYSFSPTTSPFDPRSLNQELKIGRIGYCFDCARACMRRGKYIRTCSFERKLCRCSISDIK
modifications: left off: His6, N-terminal, cleaved | SUMO, N-terminal, cleaved
notes: mature form of AtLURE1.2 (residues 20–90), defensin-like cysteine-rich peptide expressed in insect cells
- binding in ITC (MIK2^LRR): not detected; also recorded: no obvious heat was produced; also recorded: none of the purified AtPRK3^LRR, MIK1^LRR or MIK2^LRR proteins showed detectable interaction
- interaction in pull-down assay (MIK1^LRR): none of the other LRR proteins was found to interact
